The values that follow are results of earlier work, collected in US20070032640A1, “Cytokine receptor” (priority 2001, published 2007).

The target in data set [1] is T1, gp130 (Homo sapiens, UniProt P40189).
T1 sequence (P40189 23-918): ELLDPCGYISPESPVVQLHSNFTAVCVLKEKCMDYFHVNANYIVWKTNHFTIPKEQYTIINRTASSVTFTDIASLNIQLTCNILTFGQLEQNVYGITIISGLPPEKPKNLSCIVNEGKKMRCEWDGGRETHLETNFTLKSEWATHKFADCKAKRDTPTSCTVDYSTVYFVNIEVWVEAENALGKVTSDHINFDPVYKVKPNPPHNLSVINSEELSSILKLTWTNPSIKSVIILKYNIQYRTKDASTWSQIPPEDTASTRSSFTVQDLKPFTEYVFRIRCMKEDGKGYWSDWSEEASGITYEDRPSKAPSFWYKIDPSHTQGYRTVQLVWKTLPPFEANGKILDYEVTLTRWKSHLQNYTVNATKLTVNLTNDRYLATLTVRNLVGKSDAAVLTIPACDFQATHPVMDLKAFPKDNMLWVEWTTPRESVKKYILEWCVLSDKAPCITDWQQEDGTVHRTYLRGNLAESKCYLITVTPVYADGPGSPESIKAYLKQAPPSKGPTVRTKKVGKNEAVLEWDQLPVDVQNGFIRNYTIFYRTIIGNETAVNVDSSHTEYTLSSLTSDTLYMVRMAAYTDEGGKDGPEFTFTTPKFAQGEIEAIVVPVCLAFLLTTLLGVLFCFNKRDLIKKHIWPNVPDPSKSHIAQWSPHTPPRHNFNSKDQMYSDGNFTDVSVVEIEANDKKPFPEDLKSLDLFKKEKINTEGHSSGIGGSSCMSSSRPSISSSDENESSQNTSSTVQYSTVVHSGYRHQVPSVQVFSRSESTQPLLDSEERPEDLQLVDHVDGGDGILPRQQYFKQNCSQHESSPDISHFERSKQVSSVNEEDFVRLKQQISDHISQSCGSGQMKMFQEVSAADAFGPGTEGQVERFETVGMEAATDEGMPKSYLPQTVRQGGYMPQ
Also on record: endogenous in cells; host or cells: human myeloma U266 cells. Conditions: human myeloma U266 cells, high-affinity binding; read-out: affinity of IL-6/IL-6R complex for gp130; cited from earlier work.

Data set [2] concerns the target T1, gp130. As to conditions: IL-6R N-D mutant; cited from earlier work.
The subject of data set [3] is IL-6. Conditions: IL-6 binding of IL-6R mutant, relative to wild type; cited from earlier work.

For the molecule “IL-6/IL-6R complex: complex of IL-6 with the ligand binding α-chain receptor IL-6R”, the Kd in data set [1] was approximately 0.01 nM.

B1: N211: IL-6R N-D mutant at N211 (protein, UniProt P08887 20-468, looked up, variant N211D)
Interleukin-6 receptor …: LAPRRCPAQEVARGVLTSLPGDSVTLTCPGVEPEDNATVHWVLRKPAAGSHPSRWAGMGRRLLLRSVQLHDSGNYSCYRAGRPAGTVHLLVDVPPEEPQLSCFRKSPLSNVVCEWGPRSTPSLTTKAVLLVRKFQNSPAEDFQEPCQYSQESQKFSCQLAVPEGDSSFYIVSMCVASSVGSKFSKTQTFQGCGILQPDPPANITVTAVARDPRWLSVTWQDPHSWNSSFYRLRFELRYRAERSKTFTTWMVKDLQHHCVIHDAWSGLRHVVQLRAQEEFGQGEWSEWSPEAMGTPWTESRSPPAENEVSTPMQALTTNKDDDNILFRDSANATSLPVQDSSSVPLPTFLVAGGSLAFGTLLCIAIVLRFKKTWKLRALKEGKTSMHPPYSLGQLVPERPRPTPVLVPLISPPVSPSSLGSDNTSSHNRPDARDPRSPYDISNTDYFFPR
B1: the “binding to gp130” value in data set [2] is “N-D mutant, <10% binding to gp130”. In addition, in data set [3], the Binding is reported as 75%.
